B1: Mitotic spindle assembly checkpoint protein MAD1 (Homo sapiens), Q9Y6D9 (parent)
chain: MEDLGENTMVLSTLRSLNNFISQRVEGGSGLDISTSAPGSLQMQYQQSMQLEERAEQIRSKSHLIQVEREKMQMELSHKRARVELERAASTSARNYEREVDRNQELLTRIRQLQEREAGAEEKMQEQLERNRQCQQNLDAASKRLREKEDSLAQAGETINALKGRISELQWSVMDQEMRVKRLESEKQELQEQLDLQHKKCQEANQKIQELQASQEARADHEQQIKDLEQKLSLQEQDAAIVKNMKSELVRLPRLERELKQLREESAHLREMRETNGLLQEELEGLQRKLGRQEKMQETLVGLELENERLLAKLQSWERLDQTMGLSIRTPEDLSRFVVELQQRELALKDKNSAVTSSARGLEKARQQLQEELRQVSGQLLEERKKRETHEALARRLQKRVLLLTKERDGMRAILGSYDSELTPAEYSPQLTRRMREAEDMVQKVHSHSAEMEAQLSQALEELGGQKQRADMLEMELKMLKSQSSSAEQSFLFSREEADTLRLKVEELEGERSRLEEEKRMLEAQLERRALQGDYDQSRTKVLHMSLNPTSVARQRLREDHSQLQAECERLRGLLRAMERGGTVPADLEAAAASLPSSKEVAELKKQVESAELKNQRLKEVFQTKIQEFRKACYTLTGYQIDITTENQYRLTSLYAEHPGDCLIFKATSPSGSKMQLLETEFSHTVGELIEVHLRRQDSIPAFLSSLTLELFSRQTVA

Variants of: B1
Conditions: with cenpe_human CENPE

Row | Variant | effect of a mutation on the interaction
1 | L17A;N18A;N19A;F20A;I21A | disrupting interaction strength

Variants of: B1
Conditions: with cenpe_human CENPE
Remark: another data set of the same source

Row | Variant | effect of a mutation on the interaction
2 | L17A;N18A;N19A;F20A;I21A | decreasing interaction strength

Reference: IntAct's records for PubMed 26258632
